Test results: patent US20080305504

Key:
[1] = tested on: T1, fluorogenic composition Cy5-SEQ. ID. NO.: 1-Cy7Q
T1 sequence: KIIDEDLNSRALG

[2] = tested on: T2, hC3 peptide modified with Gly attached to a Cy5 dye at the N terminus
T2 sequence: KIIDEDLNSRALG

C3 convertase (in human plasma)
fluorescence intensity (excitation 623 nm, emission 676 nm), latex-activated plasma against plasma alone after subtracting the PBS control [1]: the signal enhancement due to Latex activation of complement was >100% | fluorescence intensity (excitation 623 nm, emission 676 nm), plasma incubated on latex coated polystyrene against plasma alone [1]: showed >50% enhancement in signal over the plasma alone sample | cleavage of the Cy5-labelled peptide in human plasma in a Latex plate, by reverse phase HPLC at 670 nm [2]: A new peak was observed in addition to the original peak. The new peak represents the cleavage product.
